Article PMC4570336
Where two headings read alike, the source gives them in different places.

Tests used:
[1] = tested on: Inactivated H5N1 avian influenza virus (whole virion) (Avian influenza virus H5N1 (Scotland/59))
[2] = tested on: Inactivated H2N2 influenza virus (whole virion) (Avian influenza virus H2N2 (strain not stated)); conditions: 5'-biotin; scale: ohm
[3] = tested on: Inactivated H1N1 influenza virus (whole virion) (Avian influenza virus H1N1 (strain not stated)); conditions: 5'-biotin; scale: ohm
[4] = tested on: Inactivated H7N2 avian influenza virus (whole virion) (Avian influenza virus H7N2 (strain not stated)); conditions: 5'-biotin; scale: ohm
[5] = tested on: Inactivated H5N1 avian influenza virus (whole virion) (Avian influenza virus H5N1 (Scotland/59)); assay: SPR; conditions: 5'-biotin; cited from earlier work

| Sequence | binding signal (ohm (impedance increase)) [1] | binding signal (ohm (impedance increase)) ([1]; 5'-biotin) | binding signal [2] | binding signal [3] | binding signal [4] | Kd [5] [nM] |
| --- | --- | --- | --- | --- | --- | --- |
| CCGAATTCGAAGGACAAGAGGCGAAAAGATTTAAAGTAATCAAAGACTGAGCAACTCTTATCTTTTATGCTACGTCCCGC [control sequence (non-target aptamer)] | 282 | – | – | – | – | – |
| GTGTGCATGGATAGCACGTAACGGTGTAGTAGATACGTGCGGGTAGGAAGAAAGGGAAATAGTTGTCCTGTTG [H5N1 aptamer] | – | 61000 | -2000 | -2000 | -2000 | 4.65 |
